This is an account of results in patent EP4725501A1 (Staidson (Beijing) Biopharmaceuticals Co., Ltd., dated 2026).

For orientation: EC50 means the concentration needed to bring the measured effect to its halfway point.

Experiment [1] concerns the target T1, human MASP3-His (human, UniProt P48740-2 20-728).
T1 sequence (looked up): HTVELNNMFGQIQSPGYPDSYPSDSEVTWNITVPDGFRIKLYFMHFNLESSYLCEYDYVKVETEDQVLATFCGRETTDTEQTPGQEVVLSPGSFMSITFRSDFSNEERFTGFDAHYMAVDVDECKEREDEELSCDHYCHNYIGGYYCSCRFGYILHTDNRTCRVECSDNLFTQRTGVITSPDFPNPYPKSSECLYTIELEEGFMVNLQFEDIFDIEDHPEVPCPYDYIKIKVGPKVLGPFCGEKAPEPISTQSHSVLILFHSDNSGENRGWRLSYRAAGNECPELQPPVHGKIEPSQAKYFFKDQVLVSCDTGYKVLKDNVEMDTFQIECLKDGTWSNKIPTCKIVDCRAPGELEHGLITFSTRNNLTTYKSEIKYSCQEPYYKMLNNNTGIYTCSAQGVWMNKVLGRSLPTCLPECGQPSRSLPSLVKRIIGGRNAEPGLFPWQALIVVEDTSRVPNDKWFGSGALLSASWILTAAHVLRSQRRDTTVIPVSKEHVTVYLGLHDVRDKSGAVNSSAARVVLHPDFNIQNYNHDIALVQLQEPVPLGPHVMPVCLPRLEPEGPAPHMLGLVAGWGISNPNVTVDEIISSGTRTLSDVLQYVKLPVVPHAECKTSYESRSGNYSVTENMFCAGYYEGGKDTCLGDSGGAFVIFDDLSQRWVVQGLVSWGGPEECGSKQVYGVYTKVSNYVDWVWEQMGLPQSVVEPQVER
Nature of the experiment: cell-based or functional assay.

A further experiment concerns the target T2, mouse MASP3-His (mouse, UniProt P98064-2 25-733).
T2 construct: not shown: His tag added to the terminal
T2 sequence (looked up): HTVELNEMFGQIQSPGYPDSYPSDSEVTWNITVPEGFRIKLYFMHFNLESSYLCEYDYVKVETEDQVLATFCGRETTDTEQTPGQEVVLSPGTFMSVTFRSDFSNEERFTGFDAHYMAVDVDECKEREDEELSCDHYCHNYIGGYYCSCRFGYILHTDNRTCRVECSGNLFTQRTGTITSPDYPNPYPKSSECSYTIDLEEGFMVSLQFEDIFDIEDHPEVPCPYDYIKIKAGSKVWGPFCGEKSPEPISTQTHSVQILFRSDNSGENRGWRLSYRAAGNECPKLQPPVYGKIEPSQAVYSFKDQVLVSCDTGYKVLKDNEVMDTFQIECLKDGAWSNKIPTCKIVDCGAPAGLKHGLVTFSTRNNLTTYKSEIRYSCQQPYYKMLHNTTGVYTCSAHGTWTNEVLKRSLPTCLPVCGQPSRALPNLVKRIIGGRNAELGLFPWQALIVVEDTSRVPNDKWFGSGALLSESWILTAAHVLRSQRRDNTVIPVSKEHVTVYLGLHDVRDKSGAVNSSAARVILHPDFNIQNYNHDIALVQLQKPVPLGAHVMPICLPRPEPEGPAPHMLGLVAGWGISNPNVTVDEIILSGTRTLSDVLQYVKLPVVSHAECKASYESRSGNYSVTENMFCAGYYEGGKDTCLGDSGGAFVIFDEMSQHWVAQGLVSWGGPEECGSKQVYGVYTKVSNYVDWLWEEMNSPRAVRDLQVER
Description: ELISA; antigen coated 0.1 ug/well, antibody titrated, goat anti-human IgG-HRP. Background: In an ELISA, binding on a coated surface is turned into a signal by an enzyme label.

A further experiment concerns the target T3, monkey MASP3-His (monkey).
T3 construct: monkey species not further specified
The description is as above.

The target of experiment [2] is T1, human MASP3-His. The experiment is described as above.
In experiment [3] the target is T4, MASP3 in Factor D depleted human plasma (human, UniProt P48740-2 20-728).
T4 sequence (looked up): T1 sequence (looked up)
Description: cell-based or functional assay.

Experiment [4] concerns the target T1, human MASP3-His. Nature of the experiment: cell-based or functional assay. The source holds these as a separate data set.

B1: M3-K1 (antibody, V domains shown)
VH: EVQLQQSGAELVKPGASVKISCKASGYTFTGKWIEWVKQRPGHGLEWIGEILPGSGSTDYNERFKDKATFTADTSSNTAYMQLTSLTPDDSATYYCVRSEDLWGSGTTLTVSS
VL: DVVMTQTPSSLAVSAGEKVTMSCKSSQSLLNSVTRKTYLAWYQQKPGQSPKLLIYWASTRESGVPDRFTGSGSGTDFTLTISSVQAEDLAIYYCKQSYTLPTFGGGTKLEIK
notes: also called anti-MASP3 chimeric antibody M3-K1
For the molecule B1, the “IC50 (nM), inhibition of MASP3 enzyme activity (fluorescent tripeptide cleavage)” value with human MASP3-His [1] stood at 32.1 nM. Also, the EC50 came to 0.23 nM with mouse MASP3-His, 0.79 nM in the experiment with monkey MASP3-His and 0.08 nM with human MASP3-His [2]. The “Inhibit hemolysis IC50” value in experiment [3] is 2.05 nM. Besides, the “IC50 (nM), inhibition of MASP3 enzyme activity (cleavage of fluorescent tripeptide Boc-Val-Pro-Arg-AMC)” value with human MASP3-His [4] was found to be 34 nM.

B2: M3-K2 (antibody, V domains shown)
VH: B1 VH
VL: DIVLTQSPSSLAVSAGEKVTMTCKSSQNLFNSRTRKNYLAWFQQKPGQSPKLLIYWASTRESGVPDRFTGSGSGTDFTLTISSVQAEDLAVYYCKQSYIPFTFGGGTKLEIK
notes: also called anti-MASP3 chimeric antibody M3-K2
On to B2, for which, in the experiment with human MASP3-His [1], the “IC50 (nM), inhibition of MASP3 enzyme activity (fluorescent tripeptide cleavage)” value stood at 21.4 nM. Further, the EC50 worked out at 0.08 nM with mouse MASP3-His, 0.24 nM with monkey MASP3-His and 0.04 nM in the experiment with human MASP3-His [2]. Also, the “Inhibit hemolysis IC50” value in experiment [3] came out at 1.31 nM. The “IC50 (nM), inhibition of MASP3 enzyme activity (cleavage of fluorescent tripeptide Boc-Val-Pro-Arg-AMC)” value with human MASP3-His [4] worked out at 38.6 nM.
